The source of these data is patent US7968762.

The target of this experiment is human Met receptor (human) (UniProt P08581). Description: cell-based or functional assay.
UniProt P08581, sequence (P08581 25-1390): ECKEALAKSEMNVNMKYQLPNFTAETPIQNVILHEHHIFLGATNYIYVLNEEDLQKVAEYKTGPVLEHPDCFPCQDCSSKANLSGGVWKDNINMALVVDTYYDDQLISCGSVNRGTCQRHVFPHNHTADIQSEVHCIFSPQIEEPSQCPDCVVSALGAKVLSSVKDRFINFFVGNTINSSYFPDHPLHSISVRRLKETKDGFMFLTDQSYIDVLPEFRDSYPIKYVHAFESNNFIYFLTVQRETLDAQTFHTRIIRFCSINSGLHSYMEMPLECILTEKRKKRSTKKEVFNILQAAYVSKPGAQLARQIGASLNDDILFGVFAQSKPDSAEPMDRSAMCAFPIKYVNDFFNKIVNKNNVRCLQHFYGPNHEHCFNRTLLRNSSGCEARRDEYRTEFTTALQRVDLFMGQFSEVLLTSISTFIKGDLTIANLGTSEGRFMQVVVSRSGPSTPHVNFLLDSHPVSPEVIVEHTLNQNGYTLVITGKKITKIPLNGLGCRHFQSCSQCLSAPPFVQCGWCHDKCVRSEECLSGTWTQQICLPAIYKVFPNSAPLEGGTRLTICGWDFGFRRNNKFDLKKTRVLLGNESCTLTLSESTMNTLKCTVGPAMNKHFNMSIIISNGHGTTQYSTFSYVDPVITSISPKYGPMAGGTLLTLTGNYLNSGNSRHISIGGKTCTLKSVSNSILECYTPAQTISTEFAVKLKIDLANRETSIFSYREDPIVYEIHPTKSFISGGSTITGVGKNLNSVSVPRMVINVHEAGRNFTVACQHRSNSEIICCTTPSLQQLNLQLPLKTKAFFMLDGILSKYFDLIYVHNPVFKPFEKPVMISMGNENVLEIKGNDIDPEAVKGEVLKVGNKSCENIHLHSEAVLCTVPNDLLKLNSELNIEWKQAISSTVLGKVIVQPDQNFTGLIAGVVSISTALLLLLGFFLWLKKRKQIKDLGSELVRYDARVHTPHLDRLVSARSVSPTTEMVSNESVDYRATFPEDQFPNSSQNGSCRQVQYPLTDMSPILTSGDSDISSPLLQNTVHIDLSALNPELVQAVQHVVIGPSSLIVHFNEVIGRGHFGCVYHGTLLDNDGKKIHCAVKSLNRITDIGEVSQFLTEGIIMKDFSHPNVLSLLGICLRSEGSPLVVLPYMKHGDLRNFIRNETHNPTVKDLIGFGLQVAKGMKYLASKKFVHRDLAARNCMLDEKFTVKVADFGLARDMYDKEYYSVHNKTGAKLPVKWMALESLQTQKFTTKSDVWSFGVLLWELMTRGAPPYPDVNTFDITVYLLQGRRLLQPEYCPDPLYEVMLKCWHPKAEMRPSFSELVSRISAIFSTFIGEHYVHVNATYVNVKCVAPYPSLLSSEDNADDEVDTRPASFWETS

Substance “human hepatocyte growth factor/scatter factor (hHGF/SF) (from UniProt P14210 32-728) (ligand)” registered a growth of subcutaneous SK-LMS-1 (high Met) xenografts in hHGF Tg scid mice against control scid mice of 3 fold.
